Patent US20080187528A1 (FUNCTIONAL GENETICS, published 2008)

Molecular target: T1, Ebola VP40 (1-326) (Ebola virus (EBOV), UniProt Q05128 1-326)
T1 sequence: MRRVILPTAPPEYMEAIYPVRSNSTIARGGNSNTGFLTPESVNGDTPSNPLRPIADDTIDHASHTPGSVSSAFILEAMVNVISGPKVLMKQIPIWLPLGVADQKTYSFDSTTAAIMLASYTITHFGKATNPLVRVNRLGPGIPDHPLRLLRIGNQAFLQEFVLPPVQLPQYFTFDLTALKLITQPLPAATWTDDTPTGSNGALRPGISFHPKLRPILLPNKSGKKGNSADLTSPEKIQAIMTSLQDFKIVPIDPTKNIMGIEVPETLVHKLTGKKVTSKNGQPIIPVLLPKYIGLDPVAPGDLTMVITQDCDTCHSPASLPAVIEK
Assay: co-immunoprecipitation with anti-Myc antibody from 293T lysates

B1: TSG101 1-140 truncated mutant, C-terminally tagged with a Myc epitope (other)
chain: MAVSESQLKKMVSKYKYRDLTVRETVNVITLYKDLKPVLDSYVFNDGSSRELMNLTGTIPVPYRGNTYNIPICLWLLDTYPYNPPICFVKPTSSMTIKTGKHVDANGKIYLPYLHEWKHPQSDLLGLIQVMIVVFGDEPP
notes: Expressed in 293T cells
Does B1 bind?
Result: no binding
